Laboratory results reported in the DeepSol protein solubility set.

Test: soluble on expression in E. coli; label from the status in PepcDB or PDB records

Sequence | soluble on expression in E. coli
MSAAASMFVRQFFHGTRADLSPGELIVVGYQSNFTTAAPLSWVYFSGTLDAAIWGAELAAGDAPQRIYVVEPTGPFEDDPNLTDKKFPGNPTLSYRSKHPLRIVAEMTKWQGHSPERVQQMKDGLARLSAEGAEIID | not soluble
MSAEAAAVEVQANEAPIVAPIMYKVESSDGQVYEISDEAVKQSNTLSNLISTCVANDVASMDPIPITNVTGNIMKMVIEWCEKHKGETLPVEDDSVPKNITVPEWDTNFLKIDNDVLFDLIVASNFLDVPGLMSYACKMVANMAIGKSPDEMRVLFAIPTDEEDEAAEKAAKEKAEAEKKAITEKDAAEPSTSK | soluble
MSAFQAFVVNKTETEFTAGVQTISMDDLPEGDVLVRVHYSSVNYKDGLASIPDGKIVKTYPFVPGIDLAGVVVSSQHPRFREGDEVIATGYEIGVTHFGGYSEYARLHGEWLVPLPKGLTLKEAMAIGTAGFTAALSIHRLEEHGLTPERGPVLVTGATGGVGSLAVSMLAKRGYTVEASTGKAAEHDYLRVLGAKEVLAREDVMAERIRPLDKQRWAAAVDPVGGRTLATVLSRMRYGGAVAVSGLTGGAEVPTTVHPFILRGVSLLGIDSVYCPMDLRLRIWERLAGDLKPDLERIAQEISLAELPQALKRILRGELRGRTVVRLA | soluble
MSAGKIDVHGFEKETLFFKNIASGSKGNCTLIWDSTDLIVIDLGITMKKFRDSIKSLDLAGRSISLFISHEHSDHIGGVPTTSKYVDMDVYMRPALSGSFRRKTYEMDGSLVVGNFEIRAFEIPHDAADPVGFSVLWHNRKISVVSDLGKVTDRVIESIRNSDILAFESNHDVEMLRTGSYPEALKRRILSDHGHLSNEQSAEAISRVATDDMRIILTHLSQENNRPEIALNEVKSYLENRNVRYRSIETADQYTGSSLYTLER | not soluble
MSAGTRTQQQPPPKQRHPFQPACRLWCPLSPPSVLPFCASTCRPPPQDRQVRQCGGRIALRVAISPLSSSHSVLDGISHLASRMSDHADIDEAARKRLRAEAPFVSPLPLPPPAAPLLPCDASHNGESAEAAGHILVASAPPHKEDSVASTLHTSAKEARFEGRCMPPSFHSLLGEYEVPEEAKDVEDLVGGHEDFSDLPEARREALLQSVRTLVKKAAGASSAEQLEHLRVKGSRLHGFKDTARKSELTAAYRQLVREGAIAENAVVEALLIRKKGKSHSGVLVVTVFMGPGEFSCPKDCHYCPNQPGIARSYLLKEPGVLRGFRNGWDPISQFYDRASALENNGHVVDKIELIILGGTFSFYPQRYAEEFMTASFYAANTYYDSAPLRPMRSLAEELTLNEGARCRIIGITAETRPDYISARELRRFRSLGITRVQLGIQHLDDDILNLINRDCPTAKTVVAIQRLLDAGFKVDAHWMPDLPGSSFEKDMELFETLFSAENESFQVDQWKVYPTATVPFTKISEWYAQGQYKPYAELDNGAYMVKLLVYIMEHCPYRIRLNRIIRDIPTTYIMGGEKRCNLRQVIEAEMRARHIRCKDIRERECKGNPVDRANTHLFTDEFRASEGTEFYLSVENKDRTQLYGHLRLRLRDDASREESNILPVLRGCALVRELHTYGKLIAVSQQNTGRETQHVGVGTQLMREAERIAKERGYHRMAVIAGVGVRRYYAKLGYRLEDTYMVKELDEQASAITEDQVVQDDDNENSAYSSFLSTIKSFFGFHKNTP | not soluble
MSAIEVKNLVKKFHGQTVLHGIDLEVKPGEVVAIIGPSGSGKTTLLRSINLLEQPEAGTITVGDITIDTARSLSQQKSLIRQLRQHVGFVFQNFNLFPHRTVLENIIEGPVIVKGEPKEEATARARELLAKVGLAGKETSYPRRLSGGQQQRVAIARALAMRPEVILFDEPTSALDPELVGEVLNTIRQLAQEKRTMVIVTHEMSFARDVADRAIFMDQGRIVEQGAAKALFADPEQPRTRQFLEKFLLQ | soluble
MSAIEVTADAASTWDWPLQHNDGVVKVHNTKEKFEVGLDVQFFTPKEIEVKVSGQELLIHCRHETRSDNHGTVAREINRAYKLPDDVDVSTVKSHLATRGVLTITASKKA | soluble
MSAKDFLVELGTEELPPKALNSLGEAFLSGIEKGLKAAGLSYAAARFYAAPRRLAVLVEQLAVQQPDRTVNLDGPPLQAAFDASGNPTQAALGFAKKCGVDLQQIDKSGPKLRFIQTIAGQPAAGLLPGIVEASLNELPIPKRMRWAARREEFVRPTQWLVMLFGDDVVECEILAQKAGRESRGHRFHNPDNVRISSPAAYLEDLRGAHVLADFAERRELIAKRVAELAAEQQGSAIVPPSLLDEVTALVEWPVPLVCSFEERFLEVPQEALITTMQDNQKYFCLLDANGKLLPRFITVANVESKAPENIVSGNEKVVRPRLTDAEFFFKQDKKQPLESFNERLRNVVFQAQLGTVFEKAQRVSGLAAYIAERIGGNAQNASRAGILSKCDLATEMVGEFPEMQGIAGYYYATHGGEAEDVALALNEQYMPRGAGAELPSTLTGAAVAVADKLDTLVGIFGIGMLPTGSKDPYALRRAALGVLRILIEKQLDLDLVAAVNAAVEQYGDKVKAAGLAEQVLDFVFDRLRARYEDEGVDVAVYQSVRALKPSSPLDFDQRVQAVQAFRQLPEAEALAAANKRVSNILAKSEDEVPPNVDASLLVEAAEKALGSAVANAESEVAPLAAARDYRAALARLAALREPVDTFFADVMVNVDDAAVRANRYALLAKLRGSFLGVADIS | not soluble
MSALGAPAPYLHHPTDSHSGRVSFLGSQPSAEVTAVAQLLKDLDRSTFRKLLKLVVGALHGKDCREAVQHLGASANLSEERLAVLLAGTHTLLQQALRLPPASLKPDAFQDELQELGIPQDMIGDLASLAFGSQRPLLDSVAQQQGSSLPRVSNFRWRVDVAISTSAQSRSLQPSVLMQLKLTDGSAHRFEVPIAKFQELRYSVALVLKEMAELERKCERKLQD | not soluble
MSALRSVLLLCWRDIGHPQGGGSEAYLQRIGAQLAASGIAVTLRTARYPGAPRHELVDGVRISRAGGRYSVYLWALLAMAAARCGLGPLRRVRPDVVVDTQNGWPFVARLLYGRRSLVLVHHCHREQWPVAGRMMGRLGWYVESMLSPRLHRRNQYVTVSLPSARDLIALGVDSERIAVVRNGLDEAPSPTLSGPRAPTPRVVVLSRLVPHKQIEDALAAVAELQPRIPGLHLDIVGGGWWRQRLVDHVHRLDIADAVTFHGHVDDVTKHHVLQSSWVHLLPSRKEGWGLAVIEAAQHGVPTIGYRSSGGLADSIVDGVTGILVDDRAELVAWLEQLLSDSVLRDQLGAKAQARSGEFSWRQSAEALRSVLEAVQASRFVSGVV | soluble
MSANDFKPETWTSSANEALRVSIVGENAVQFSPLFTYPIYGDSEKIYGYKDLIIHLAFDSVTFKPYVNVKYSAKLGDDNIVDVEKKLLSFLPKDDVIVRDEAKWVDCFAEERKTHNLSDVFEKVSEYSLNGEEFVVYKSSLVDDFARRMHRRVQIFSLLFIEAANYIDETDPSWQIYWLLNKKTKELIGFVTTYKYWHYLGAKSFDEDIDKKFRAKISQFLIFPPYQNKGHGSCLYEAIIQSWLEDKSITEITVEDPNEAFDDLRDRNDIQRLRKLGYDAVFQKHSDLSDEFLESSRKSLKLEERQFNRLVEMLLLLNNSPSFELKVKNRLYIKNYDALDQTDPEKAREALQNSFILVKDDYRRIIESINKSQG | not soluble
MSAPLIDKYRKMATFDWKKLKAAVEGEEHVRLKSEVVAKMKSEPVFHRDYRVLSREEQREVVHQRWKKIVEWGLFKDPYSDLENFHALTETLEAYDQGTSARLFLHGNVFGAAVKSMGTDRHKDLIQKTENNEIVGAFCLTEVGHGSNTAEIQTTATFDNGELVFNTPSVSAIKCWAGNLAHSATHVVVYAQLHVEGKNEGFHGFVIQVRCPRTFQTLPGITIGDMGSKPGCWQGVENGWMEFKNHRAPLSALLNKGCDITPDGKYVTSFKSASEKQSVSLGTLSVGRLGIIAKGMMACTFASTIAIRYSVARRQFGPVKGAENEIPVLEYPLQQYRLFPYLSAAICIRIFQKKFVGHFTEYMMRVIMGEKSDELSEFSKEVHALSSGAKPVATWLGVESLGEARKACGGHGYLQMSRLNTLRDDNDPSQTFEGENFMILQQTSNILLGKAQSIGSIETPMSTMSFLNQKPSKFSSWSSNPVNDVLSAYRYLTYHLLQTTSAEAYRLKASGKNSFEVRNEIQIHRAVNLSVAYTEHTMIHWVQQFLKEIEDQSVKPVLQKVLNLFSLFLLERHLATLYITGYASGGKFGEDLREKLRLAVAELKPEAIALVDSIAPDDFILHSALGASDGKAYEHIMEEFRKYTNEQPRWVCDLAQFLQKRSQGSKL | not soluble
MSAPVQCPIHPDVHLIEDHRAGDLVCPACGLVVGDRLVDVGTEWRSFSNERSGNDPSRVGAPENPLLSGGDLSTTIAVGFGGSDSDNSLANAQRKSMNNTDRQMTAAMSLIREMSERIHLPRNIQDSASRIFKDVLESKALRGKNNEAQAAACLYIACRKDGVPRTFKEICAVSRVSKKEIGRCFKIIVRSLETNLEQITSADFMSRFCGNLSLPNSIQAAATRIAKCAVDMDLVAGRTPISIAAAAIYMASQASAEKRSAKEIGDVAGAAEITVRQTYKLLYPKALELFPKDFRFVTPIDALPNS | not soluble
MSASQKEGKLSTATISVDGKSAEMPVLSGTLGPDVIDIRKLPAQLGVFTFDPGYGETAACNSKITFIDGDKGVLLHRGYPIAQLAENASYEEVIYLLLNGELPNKAQYDTFTNTLTNHTLLHEQIRNFFNGFRRDAHPMAILCGTVGALSAFYPDANDIAIPANRDLAAMRLIAKIPTIAAWAYKYTQGEAFIYPRNDLNYAENFLSMMFARMSEPYKVNPVLARAMNRILILHADHEQNASTSTVRLAGSTGANPFACIAAGIAALWGPAHGGANEAVLKMLARIGKKENIPAFIAQVKDKNSGVKLMGFGHRVYKNFDPRAKIMQQTCHEVLTELGIKDDPLLDLAVELEKIALSDDYFVQRKLYPNVDFYSGIILKAMGIPTSMFTVLFAVARTTGWVSQWKEMIEEPGQRISRPRQLYIGAPQRDYVPLAKR | soluble
MSCSHYEERVEKVELPQLKVNGMAIGEDLLARELQYHPADSYALALEAACRALIVRQLLLQRADALGIEARCEDGETPEEARIRQLLEEEVQVPEADEDACRTWYAANPGRLLGPWRLQLRHVLLACAPDDLEGRETARKQAAELLDELRGHPERFVDLARRFSACPSKESGGDLGWIEPGQTVPEFEKRLLRRAPGLLEHPLESRYGLHVVELLAREGGEPLDFDAARAQIAAHLQAQVLQRAVGQYIGVLAGD | not soluble
MSDALLAPLNEAQRQAVLHFEGPALVVAGAGSGKTRTVVHRVAYLVARRGVFPSEILAVTFTNKAAEEMRERLRGLVPGAGEVWVSTFHAAALRILRVYGERVGLRPGFVVYDEDDQTALLKEVLKELALSARPGPIKALLDRAKNRGVGLKALLGELPEYYAGLSRGRLGDVLVRYQEALKAQGALDFGDILLYALRLLEEDEEVLRLVRKRARFIHVDEYQDTSPVQYRFTRLLAGEEANLMAVGDPDQGIYSFRAADIKNILDFTRDYPEARVYRLEENYRSTEAILRFANAVIVKNALRLEKALRPVKRGGEPVRLYRAEDAREEARFVAEEIARLGPPWDRYAVLYRTNAQSRLLEQALAGRGIPARVVGGVGFFERAEVKDLLAYARLALNPLDAVSLKRVLNTPPRGIGPATWARVQLLAQEKGLPPWEALKEAARTFSRPEPLRHFVALVEELQDLVFGPAEAFFRHLLEATDYPAYLREAYPEDAEDRLENVEELLRAAKEAEDLQDFLDRVALTAKAEEPAEAEGRVALMTLHNAKGLEFPVVFLVGVEEGLLPHRNSVSTLEGLEEERRLFYVGITRAQERLYLSHAEEREVYGRREPARPSRFLEEVEEGLYEVYDPYRRPPSPPPHRPRPGAFRGGERVVHPRFGPGTVVAAQGDEVTVHFEGFGLKRLSLKYAELKPA | soluble
MSDDIFRLATVEDASELLKLVNSAFQPIRQLDIDWPSTRADIQMVSENIEHHSAIVLERDGKLISTITIRFPWESETPPSKYPFVWWFATLPEYKGQGAGSKLLTYVEEKVLRDMLKAPALTLGTSARKHPWLADMYRRRGYEVYFEQEKDGDIGVMMHKVLIPERFNPTLLGAPSWA | soluble
